Here are results for ten molecules from US20200115714A1 (GEORGIA TECH RESEARCH, published 2020).

For data set [1], the target named is T1, E. coli fatty acid biosynthesis acyl carrier protein (E. coli AcpP), P0A6A8.
T1 chain: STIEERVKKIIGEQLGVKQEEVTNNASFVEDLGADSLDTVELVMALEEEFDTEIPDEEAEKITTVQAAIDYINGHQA

The next data set addresses T2, 15N-octanoyl-AcpP (Escherichia coli, UniProt P0A6A8 2-78, octanoyl group, 15N-labelled (printed as 15N-octanoyl-AcpP); attachment site not given).
T2 construct: Purified, labelled AcpP of the NMR titrations; also called 15N-AcpP; E. coli ACP
The data set can be described thus: NMR titrations between 15N-octanoyl-AcpP and the AbTEs.

B1: AbTE:G17E (protein)
chain: MGKTILILGDSLSAGYEINPEQGWVALLQKRLDQQFPKQHKVINASVSGETTSGALARLPKLLTTYRPNVVVIELGGNDALRGQPPQMIQSNLEKLIQHSQKAKSKVVVFGMKIPPNYGTAYSQAFENNYKVVSQTYQVKLLPFFLDGVAGHKSLMQNDQIHPNAKAQSILLNNAYPYIKGAL
As to B1, in data set [1], the “secreted MCFAs, E. coli (GC/MS)” value was “˜21 mg/L and 14 mg/L of secreted MCFAs, respectively”.

B2: AbTE:G17E/A165E (protein)
chain: MGKTILILGDSLSAGYEINPEQGWVALLQKRLDQQFPKQHKVINASVSGETTSGALARLPKLLTTYRPNVVVIELGGNDALRGQPPQMIQSNLEKLIQHSQKAKSKVVVFGMKIPPNYGTAYSQAFENNYKVVSQTYQVKLLPFFLDGVAGHKSLMQNDQIHPNEKAQSILLNNAYPYIKGAL
For the molecule B2, in data set [1], the “secreted MCFAs, E. coli (GC/MS)” value was “˜21 mg/L and 14 mg/L of secreted MCFAs, respectively”.

B3: AbTE:G17R/A165E (protein)
chain: MGKTILILGDSLSAGYRINPEQGWVALLQKRLDQQFPKQHKVINASVSGETTSGALARLPKLLTTYRPNVVVIELGGNDALRGQPPQMIQSNLEKLIQHSQKAKSKVVVFGMKIPPNYGTAYSQAFENNYKVVSQTYQVKLLPFFLDGVAGHKSLMQNDQIHPNEKAQSILLNNAYPYIKGAL
B3: the “secreted MCFAs, E. coli (GC/MS)” value in data set [1] is listed as “AbTE:G17R/A165E resulted in ˜57 mg/L of secreted MCFAs”.

B4: AbTE:G17R (protein)
chain: MGKTILILGDSLSAGYRINPEQGWVALLQKRLDQQFPKQHKVINASVSGETTSGALARLPKLLTTYRPNVVVIELGGNDALRGQPPQMIQSNLEKLIQHSQKAKSKVVVFGMKIPPNYGTAYSQAFENNYKVVSQTYQVKLLPFFLDGVAGHKSLMQNDQIHPNAKAQSILLNNAYPYIKGAL
Consider B4, for which, in data set [1], the “secreted MCFAs, E. coli MG1655, 24 hrs (GC/MS)” value (from here on “secreted MCFAs, E. coli MG1655”) is on record as “˜76 mg/L of secreted MCFAs” and the “secreted MCFAs, E. coli, 72 hrs (GC/MS)” value is listed as “cultivating E. coli expressing AbTE:G17R for 72 hrs did not result in any changes in MCFA titers”.

B5: AbTE:G17R/A165R (protein)
chain: MGKTILILGDSLSAGYRINPEQGWVALLQKRLDQQFPKQHKVINASVSGETTSGALARLPKLLTTYRPNVVVIELGGNDALRGQPPQMIQSNLEKLIQHSQKAKSKVVVFGMKIPPNYGTAYSQAFENNYKVVSQTYQVKLLPFFLDGVAGHKSLMQNDQIHPNRKAQSILLNNAYPYIKGAL
Take B5: in data set [1], the “secreted MCFA titers against AbTE:G17R” value is listed as “a 29% increase in secreted MCFA titers when compared to expression of AbTE:G17R”; the “secreted MCFA titers against AbTE:WT” value is given as “a more than 3-fold in secreted MCFA titers when compared to AbTE:WT”; the “secreted MCFAs, E. coli MG1655” value is reported as “˜98 mg/L of secreted MCFAs”; the “secreted MCFAs, E. coli, 72 hrs (GC/MS)” value is reported as “increased from 98 mg/L to 131 mg/L when extending the cultivation time from 24 hrs to 72 hrs”.

B6: Acinetobacter baylyi acyl-ACP thioesterase (AbTE) wild type (protein)
chain: MGKTILILGDSLSAGYGINPEQGWVALLQKRLDQQFPKQHKVINASVSGETTSGALARLPKLLTTYRPNVVVIELGGNDALRGQPPQMIQSNLEKLIQHSQKAKSKVVVFGMKIPPNYGTAYSQAFENNYKVVSQTYQVKLLPFFLDGVAGHKSLMQNDQIHPNAKAQSILLNNAYPYIKGAL
As for B6, in data set [1], the “secreted MCFAs, E. coli MG1655” value was “˜29 mg/L of secreted MCFAs” and the “secreted MCFAs, E. coli, 72 hrs (GC/MS)” value is on record as “from ˜29 mg/L to ˜79 mg/L”.

B7: AbTE:T120R/A121R (protein)
chain: MGKTILILGDSLSAGYGINPEQGWVALLQKRLDQQFPKQHKVINASVSGETTSGALARLPKLLTTYRPNVVVIELGGNDALRGQPPQMIQSNLEKLIQHSQKAKSKVVVFGMKIPPNYGRRYSQAFENNYKVVSQTYQVKLLPFFLDGVAGHKSLMQNDQIHPNAKAQSILLNNAYPYIKGAL
Regarding B7, the “secreted MCFAs, E. coli, 24 hrs (GC/MS)” value in data set [1] is given as “AbTE:T120R/A121R produced ˜45 mg/L of secreted MCFAs”.

B8: AbTE:G17E/A165R (protein)
chain: MGKTILILGDSLSAGYEINPEQGWVALLQKRLDQQFPKQHKVINASVSGETTSGALARLPKLLTTYRPNVVVIELGGNDALRGQPPQMIQSNLEKLIQHSQKAKSKVVVFGMKIPPNYGTAYSQAFENNYKVVSQTYQVKLLPFFLDGVAGHKSLMQNDQIHPNRKAQSILLNNAYPYIKGAL
With B8, in data set [1], the “secreted MCFAs, E. coli (GC/MS)” value is reported as “This favorable effect in secreted MCFAs or secreted fatty acids of all chain lengths is not seen in AbTE:G17E/A165R”.

B9: AbTE:G17R with C-terminal His6-tag (pET-28b-AbTE:G17R) (enzyme)
chain: MGKTILILGDSLSAGYRINPEQGWVALLQKRLDQQFPKQHKVINASVSGETTSGALARLPKLLTTYRPNVVVIELGGNDALRGQPPQMIQSNLEKLIQHSQKAKSKVVVFGMKIPPNYGTAYSQAFENNYKVVSQTYQVKLLPFFLDGVAGHKSLMQNDQIHPNAKAQSILLNNAYPYIKGALHHHHHH
notes: Purified protein; also called pET-AbTE:G17R
Turning to B9, in the data set with 15N-octanoyl-AcpP, the binding result was “binds”.

B10: AbTE:G17R/A165R with C-terminal His6-tag (pET-28b-AbTE:G17R/A165R) (enzyme)
chain: MGKTILILGDSLSAGYRINPEQGWVALLQKRLDQQFPKQHKVINASVSGETTSGALARLPKLLTTYRPNVVVIELGGNDALRGQPPQMIQSNLEKLIQHSQKAKSKVVVFGMKIPPNYGTAYSQAFENNYKVVSQTYQVKLLPFFLDGVAGHKSLMQNDQIHPNRKAQSILLNNAYPYIKGALHHHHHH
notes: Purified protein; also called pET-AbTE:G17R/A165R
Take B10: the binding result with 15N-octanoyl-AcpP was “binds”.
